{"source": "patent US7317096", "about": "(LEADD B V, dated 2008)", "proteins": {"B1": {"name": "MBP-AAP-1 fusion protein (pMAL-AAP-1) (other, not shown: large carriers)", "chain": "MTMGDKKSPTRPKRQAKPAADEGFWDCSVCTFRNSAEAFKCSICDVRKGTSTRKPRINSQLVAQQVAQQYATPPPPKKEKKEKVEKQDKEKPEKDKEISPSVTKKNTNKKTKPKSDILKDPPSEANSIQSANATTKTSETNHTSRPRLKNVDRSTAQQLAVTVGNVTVIITDFKEKTRSSSTSSSTVTSSAGSEQQNQSSSGSESTDKGSSRSSTPKGDMSAVNDESF", "notes": "Produced in E. coli, 90 to 95% pure; Printed as 'a Homotrimer or Homo-tetramer'; also called MBP-AAPI"}}, "molecular_target": "the molecule itself", "assay": "size exclusion chromatography (Superose 6 HR 10/30)"}
{"protein": "B1", "values": [{"measurement": "binding result", "value": "binds"}]}
